Test results: US20050079613A1, “Downregulation of cell surface glycoproteins by a family of human ubiquitin ligases” (Oregon Health & Science University, priority 2002, published 2005)

What was measured:
HLA-A2.1 = test: Pulse-chase of HLA-A2.1 maturation and turnover in transfected HeLa cells; format: cell-based, human; details: HeLa cells co-transfected with HLA-A2.1 and MARCH-IV, chase up to 8 hours
Protocol: Metabolic labeling, immunoprecipitation and Western blotting. HeLa cells were grown to 80% confluency in 100 mm tissue culture dishes and transfected as above. Cells were incubated in serum-free and methionine-free medium for 30 minutes, and metabolically labeled with ^35S-cysteine/^35S-methionine (250 μCi, Amersham) for the indicated time. After labeling, cells were washed twice with PBS and either lysed immediately in PBS containing 1% Triton X-100 and protease inhibitors (Roche, Indianapolis, Ind.), or the label was chased with excess (2 mM) unlabeled cysteine and methionine in the presence or absence of specific inhibitors for the indicated time. The cell lysates were precleared with protein A/G agarose beads and incubated with 3 μg of antibody for one hour and followed by two hours incubation with protein A/G beads. Immunoprecipated proteins were washed five times with 0.1% Triton X-100 in PBS. All samples were boiled in SDS buffer and analyzed by SDS-PAGE gel electrophoresis. Where indicated, samples were treated with Endoglycosidase H (Roche) according to manufacturer's instructions. Briefly, samples were initially denatured at 100° C. in 40 μl of 0.3% SDS, 150 mM 2-mercaptoethanol, 50 mM sodium acetate, pH 5.5 and incubated with 4 milli-Units of Endo H overnight at 37° C. All samples were boiled in SDS buffer and analyzed by SDS-PAGE gel electrophoresis. […]

CD4 = test: Surface expression of co-transfected CD4 on HeLa cells, flow cytometry; format: cell-based, human
Protocol: Flow cytometry. Cells were removed from tissue culture dishes with 0.05% Trypsin-EDTA (Invitrogen), washed with ice-cold PBS, and incubated with appropriate antibody for 30 minutes at 4° C. The cells were washed with ice-cold PBS and either resuspended in ice-cold PBS or incubated with PE-conjugated anti-mouse secondary antibody (DAKO) and washed again before analysis with a BD Biosciences (San Jose, Calif.) FACScalibur flow cytometer.
The ability to downregulate MHC I is common to KSHV-K3, KSHV-K5, MHV68-K3 and MV-M153R (Coscoy and Ganem, 2000, supra; Guerin et al., 2002, supra; Ishido et al., 2000b supra; Stevenson et al., 2000, supra). Additional substrates are ICAM-1 and B7.2 (but not B7.1) for KSHV-K5, as well as CD95 and CD4 for M153R (Coscoy and Ganem, 2001, supra; Guerin et al., 2002, supra; Ishido et al., 2000a, supra; Mansouri et al., 2003, supra). Since only low copy numbers were detected in HeLa cells for transcripts corresponding to each of the MARCH-proteins (FIG. 7C, and data not shown), HeLa cells were transfected with expression plasmids for MARCH-I, II, III, IV, V and VIII. Surface expression of selected glycoproteins was monitored upon transfection. […] Surface expression of the respective markers was analyzed by flow cytometry. […]

B1: MARCH-IV: human membrane-associated RING-CH ubiquitin ligase, SEQ ID NOS:45 and 57; construct used lacks the first 63 amino-acids (protein)
chain: WYCYGLCAPAPQMLRHQGLLKCRCRMLFNDLKVFLLRRPPQAPLPMHGDPQPPGLAANNTLPALGAGGWAGWRGPREVVGREPPPVPPPPPLPPSSVEDDWGGPATEPPASLLSSASSDDFCKEKTEDRYSLGSSLDSGMRTPLCRICFQGPEQGELLSPCRCDGSVKCTHQPCLIKWISERGCWSCELCYYKYHVIAISTKNPLQWQAISLTVIEKVQVAAAILGSLFLIASISWLIWSTFSPSARWQRQDLLFQICYGMYGFMDVVCIGLIIHEGPSVYRIFKRWQAVNQQWKVLNYDKTKDLEDQKAGGRTNPRTSSSTQANIPSSEEETAGTPAPEQGPAQAAGHPSGPLSHHHCAYTILHILSHLRPHEQRSPPGSSRELVMRVTTV
fate of HLA-A2.1 in pulse-chase (HLA-A2.1): exits the ER but is degraded
surface expression of transfected CD4 (CD4; HeLa cells co-transfected with CD4 and MARCH plasmid): reduced the surface expression
downregulation of CD4 with lysines removed from the cytoplasmic tail (CD4; HeLa cells, lysine-deleted CD4): resistance
